According to patent US20090155255A1 (Biogen, published 2009):

Columns and labels:
[1] = molecular target: T1, soluble CD23 antigen (soluble and monomeric form) (UniProt P06734 150-321, limits assumed); assay: isothermal titration calorimetry, average over temperatures
T1 construct: also called free CD23
T1 sequence (looked up): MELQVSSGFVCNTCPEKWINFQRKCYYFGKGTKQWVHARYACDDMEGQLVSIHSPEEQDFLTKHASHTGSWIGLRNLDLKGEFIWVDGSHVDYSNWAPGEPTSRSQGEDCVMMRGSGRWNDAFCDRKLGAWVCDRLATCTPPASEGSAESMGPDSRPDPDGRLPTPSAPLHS
Experimental: Isothermal titration calorimetry (ITC) accurately measures the thermodynamics of protein-protein interactions and can further provide the stoichiometry of the experimental complex. CD23, C-terminal tetravalent p5E8, p5E8 IgG and p5E8 Fab were extensively dialyzed for 12 hours against PBS. ITC experiments were performed on an iTC200 microcalorimeter (MicroCal LLC, Northampton, Mass.). After degassing, 25×1.5 μl aliquots of 100 μM CD23 were injected at 5 minute intervals into the 350-μl sample cell containing 5 μM solutions of antibody/Fab. Raw data were then integrated and fitted using a nonlinear least squares routine in ITC data analysis software ORIGIN (MicroCal LLC, Northampton, Mass.). The fitting generated values for the independent variables ΔH⁰ (binding enthalpy), N (the stoichiometry), and Kb (binding constant). For each antibody/Fab, ITC experiments were performed at 5° C., 15° C., 25° C., and 37° C. in order to determine the temperature dependence on the binding heats and to optimize the experiments to obtain better signal to noise.
The CD23 in the syringe and the antibody in the sample cell are both monomers in solution. On fitting the data, N values approximating 1, 2, and 4 would indicate binding of all available antigen binding sites for the p5E8 Fab, p5E8 IgG and the C-terminal tetravalent p5E8, respectively. […]

[2] = molecular target: T1, soluble CD23 antigen (soluble and …); assay: solution-phase competition Biacore, free CD23 read on an immobilised p5E8 chip; average of three titrations
Experimental: In this experiment, the concentration of free CD23 (soluble and monomeric form) in solution is determined by the initial rate of binding to a CM5 Biacore chip containing immobilized p5E8 MAb. Into these CD23 solutions were titrated the p5E8 Fab prepared by papain digestion (one potential binding site), p5E8 MAb (two potential binding sites), and the C-terminal anti-CD23 tetravalent antibody (four potential binding sites). The p5E8 Fab, MAb, and tetravalent antibody are the ligands and CD23 is the analyte being tested.
P5E8 was immobilized to 20247 RUs on a CM5 sensor chip. CD23 and CD23 plus antibody were flowed over the sensor chip at a 10 μl/min for 3 minutes. Initial binding rates were obtained from a fit to the initial linear portion of the raw sensorgram data (FIG. 23A). The N (stoichiometry) values were determined by plotting the antibody concentration against the initial rate, Vᵢ, obtained at each concentration (FIG. 23B). […] Three experiments measured the initial rates of binding of free CD23 to the p5E8 sensor chip (concentrations for CD23 ranged from 0.15 to 15 nM) in the presence of constant concentrations of antibody of 1, 2.5 and 10 nM. […] The calculated stoichiometries correspond to binding of CD23 antigen to all four available antigen binding sites for the C-terminal tetravalent p5E8.

Avg. N (stoichiometry) [1]: 0.99 | N (stoichiometry, CD23 molecules bound per antibody) [2]: 1.05
B1: PRIMATIZED p5E8 Fab (Fab, V domains shown)
VH: EVQLVESGGGLAKPGGSLRLSCAASGFRFTFNNYYMDWVRQAPGQGLEWVSRISSSGDPTWYADSVKGRFTISRENAKNTLFLQMNSLRAEDTAVYYCASLTTGSDSWGQGVLVTVSS
VL: DIQMTQSPSSLSASVGDRVTITCRASQDIRYYLNWYQQKPGKAPKLLIYVASSLQSGVPSRFSGSGSGTEFTLTVSSLQPEDFATYYCLQVYSTPRTFGQGTKVEIKR
notes: domain: CH1
